{
  "source": "patent US4348387A",
  "about": "“Method and system for the controlled release of biologically active substances to a body fluid” (The Rockefeller University, priority 1979, dated 1982)",
  "key": {"Concanavalin A": {"molecular_target": "Concanavalin A (Canavalia ensiformis, UniProt P02866)", "assay": "binding to and glucose elution from columns of immobilized Concanavalin A", "set-up": "species or system Jack Bean", "experimental": "At the point indicated by the arrow, 0.2 M glucose in the column buffer was begun. Fractions (2.0 ml) were collected at a flow rate of 10-15 ml/h.\nDisplacement of hormone was accomplished using 1.0 ml pulses of column buffer containing varying amounts of glucose. Glucose content is indicated over the appropriate arrows. Fractions (1.7 ml) were collected at a flow rate of 10-15 ml/h."}, "blood glucose": {"test_system": "blood glucose", "assay": "blood-glucose depression assay modified from the U.S. Pharmacopeia", "conditions": "individual animals A-F; overnight fast; 0.1mg protein/100gm body weight subcutaneous; 60 minutes after injection; each animal its own control", "method": "The conjugate prepared in I was tested using the blood-glucose depression assay modified from the U.S. Pharmoacopeia (Vol. XVIII, 883-884 (1967)).\n*After an overnight fast, each animal received 0.1mg protein/100gm body\nweight by subcutaneous injection. Each of the animals served as its own\ncontrol, receiving the maltoseinsulin derivative on day 1, and control\ninsulin on day 2. Blood glucose depression was determined 60 minutes afte\ninjection using a Beckman Glucose Analyzer 2."}},
  "note": "Several values for one entry are separate records, joined by “and”; a condition that tells them apart may be missing. Equal values may be shown once.",
  "data": [
    {"substance": "insulin [Control insulin]", "values": [
      {"measurement": "binding to immobilized Concanavalin A", "setting": "Concanavalin A; 20 mg applied to column, buffer wash, 25 mM sodium phosphate pH 7.4", "result": "did not bind to Concanavalin A"},
      {"measurement": "elution from Concanavalin A by glucose", "setting": "Concanavalin A; 0.2 M glucose in column buffer, 1,000:1 molar excess of glucose", "result": "none was eluted by the addition of glucose"},
      {"measurement": "BLOOD GLUCOSE DEPRESSION", "setting": "blood glucose", "result": "75 mg % and 70 mg % and 79 mg % and 64 mg % and 73 mg %"}
    ]}
  ]
}
